From publication PMC3563642, “MERTK Interactions with SH2-Domain Proteins in the Retinal Pigment Epithelium” (PLoS ONE, 2013)

T1: 6xHis-rMERTK(571–999), full-length human MERTK cytoplasmic domain (human, UniProt Q12866 571-999, autophosphorylated on tyrosine (incubated with ATP/MgCl2); sites Y749, Y753, Y754 were mapped on rMERTK571–864, not on this construct)
T1 construct: Expressed from the pET28a-LIC vector; also called MERTK intracellular domain; source: E. coli BL21 DE3 Gold, purified (Ni2+-NTA, Sephacryl S-200 HR), autophosphorylated with 10 mM ATP, 10 mM MgCl2
T1 sequence (looked up): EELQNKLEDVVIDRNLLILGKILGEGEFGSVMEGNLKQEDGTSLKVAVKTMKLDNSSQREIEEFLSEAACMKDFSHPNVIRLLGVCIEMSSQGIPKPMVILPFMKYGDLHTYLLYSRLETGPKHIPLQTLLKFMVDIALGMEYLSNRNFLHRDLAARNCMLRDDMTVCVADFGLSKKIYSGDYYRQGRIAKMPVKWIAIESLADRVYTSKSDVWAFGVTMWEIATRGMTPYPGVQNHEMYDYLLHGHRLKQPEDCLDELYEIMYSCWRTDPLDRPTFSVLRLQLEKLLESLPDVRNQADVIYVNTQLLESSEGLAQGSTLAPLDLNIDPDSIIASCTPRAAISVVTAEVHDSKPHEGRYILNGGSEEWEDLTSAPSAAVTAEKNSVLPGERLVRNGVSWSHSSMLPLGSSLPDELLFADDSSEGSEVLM

B1: HCK GST-SH2 domain fusion protein (domain or fragment, human, UniProt P08631 144-241, looked up)
chain: WFFKGISRKDAERQLLAPGNMLGSFMIRDSETTKGSYSLSVRDYDPRQGDTVKHYKIRTLDNGGFYISPRSTFSTLQELVDHYKKGNDGLCQKLSVPC
notes: pGEX2T construct from a library of SH2 domains; also called rSH2-domain fusion protein corresponding to HCK; source: E. coli BL21 DE3 Gold, purified (glutathione-agarose, Sephacryl S-200 HR)
B2: VAV1 GST-SH2 domain fusion protein (domain or fragment, human, UniProt P15498 671-765, looked up)
chain: WYAGPMERAGAESILANRSDGTFLVRQRVKDAAEFAISIKYNVEVKHIKIMTAEGLYRITEKKAFRGLTELVEFYQQNSLKDCFKSLDTTLQFPF
notes: pGEX2T construct from a library of SH2 domains; also called rSH2-domain fusion protein corresponding to VAV1; source: E. coli BL21 DE3 Gold, purified (glutathione-agarose, Sephacryl S-200 HR)
B3: VAV3 GST-SH2 domain fusion protein (domain or fragment, human, UniProt Q9UKW4 672-766, looked up)
chain: WYAGAMERLQAETELINRVNSTYLVRHRTKESGEYAISIKYNNEAKHIKILTRDGFFHIAENRKFKSLMELVEYYKHHSLKEGFRTLDTTLQFPY
notes: pGEX2T construct from a library of SH2 domains; also called rSH2-domain fusion protein corresponding to VAV3; source: E. coli BL21 DE3 Gold, purified (glutathione-agarose, Sephacryl S-200 HR)

Molecular target: T1, 6xHis-rMERTK(571–999), full-length …
Test: pull-down; Ni2+-NTA pull down: GST-rSH2-domain protein (10 µg) incubated with autophosphorylated 6xHis-rMERTK571–999 (10 µg) in 50 mM NaH2PO4, 300 mM NaCl, 10 mM imidazole, 0.1 µM PMSF, 1 h at 4°C, then Ni2+-NTA resin 0.5 h; washes with 50 mM imidazole, elution with 500 mM imidazole; Coomassie-stained SDS gels; negative control omits rMERTK
Conditions: both partners purified

| Binder | binding result |
| --- | --- |
| B1 | binds |
| B2 | binds |
| B3 | binds |
